Measurements: patent publication US20090291081A1 (AbbVie / Abbott, published 2009)
Like-named read-outs stand apart in the source and are kept apart here.

What was measured:
[1] = target: T1, human IL-1α (human, UniProt P01583 113-271); experiment: cell-based or functional assay
T1 sequence (looked up): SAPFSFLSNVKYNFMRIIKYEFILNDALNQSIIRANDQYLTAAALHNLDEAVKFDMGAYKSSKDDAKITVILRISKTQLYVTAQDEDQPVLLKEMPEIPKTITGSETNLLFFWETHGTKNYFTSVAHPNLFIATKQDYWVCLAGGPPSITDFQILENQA

[2] = target: T1, human IL-1α; experiment: BIAcore kinetic analysis of the dAb
[3] = target: T1, human IL-1α; experiment: BIAcore, IL-1α coated chip, dAb flowed over
[4] = target: T1, human IL-1α; experiment: BIAcore kinetic analysis of the dAb; remark: listed apart in the source
[5] = target: T2, human IL-1β (human, UniProt P01584 117-269); experiment: BIAcore kinetic analysis of the dAb
T2 construct: also called hIL-1β; rhIL-1 beta

[6] = target: T2, human IL-1β; experiment: cell-based or functional assay
[7] = target: T2, human IL-1β; experiment: BIAcore kinetic analysis of the dAb; remark: listed apart in the source
[8] = target: T2, human IL-1β; experiment: BIAcore kinetic analysis of the dAb; remark: listed apart in the source
[9] = target: T2, human IL-1β; experiment: BIAcore kinetic analysis of the dAb; remark: listed apart in the source
[10] = target: T2, human IL-1β; experiment: BIAcore kinetic analysis of the dAb; remark: listed apart in the source
[11] = target: T2, human IL-1β; experiment: cell-based or functional assay; remark: listed apart in the source
[12] = target: T2, human IL-1β; experiment: BIAcore kinetic analysis of the dAb; remark: listed apart in the source

B1: ABT1-98 (other)
VH: EVQLLESGGGLVQPGGSLRLSCAASGFTFDGYIMSWVRQAPGKGLEWVSTISPLGSVTYYADSVKGRFTISRDNSKNTLYLQMNSLRAEDTAVYYCAKKGPWFDYWGQGTLVTVSS
notes: dAb, VH, to IL-1α; also called dAb ABT1-98
- MRC5 ND10 [1]: 10 nM
- MRC5 ND50 [1]: 30 nM
- Kd [2]: 13 nM
- koff [2]: 0.027 s⁻¹
- kon [2]: 2e+06 M⁻¹ s⁻¹

B2: ABT1-122 (other)
VL: DIQMTQSPSSLSASVGDRVTITCRASQPIWTELNWYQQKPGKAPKLLIYGSSSLQSGVPSRFSGSGSGTDFTLTISSLQPEDFATYYCQQFAYFPATFGQGTKVEIKR
notes: dAb, Vκ, to IL-1α
- Kd [3]: 40 to 86 nM
- MRC5 ND10 [1]: 9 nM
- MRC5 ND50 [1]: 50 nM
- Kd [4]: 42 nM
- koff [4]: 0.28 s⁻¹
- kon [4]: 6.6e+06 M⁻¹ s⁻¹

B3: ABT2-13 (other)
VH: EVQLLESGGGLVQPGGSLRLSCAASGFTFRDYVMYWARQAPGKGLEWVSRIDPMGSSTYYADSVKGRFTISRDNSKNTLYLQMNSLRAEDTAVYYCAKPEGNFDYWGQGTLVTVSS
notes: dAb, VH, to IL-1β; also called dAb ABT2-13
- Kd [5]: 930 nM
- koff [5]: 0.075 s⁻¹
- kon [5]: 81000 M⁻¹ s⁻¹
- MRC5 ND10 [6]: 100 nM
- MRC5 ND50 [6]: 800 nM

B4: ABT2-46 (other)
VL: DIQMTQSPSSLSASVGDRVTITCRASQSIIEWLSWYQQKPGKAPKLLIYRTSVLQSGVPSRFSGSGSGTDFTLTISSLQPEDFATYYCQQNEFWPFTFGQGTKVEIKR
notes: dAb, Vκ, to IL-1β; also called dAb ABT2-46
- Kd [7]: 2800 nM
- koff [7]: 0.063 s⁻¹
- kon [7]: 23000 M⁻¹ s⁻¹
- MRC5 ND10 [6]: 70 nM
- MRC5 ND50 [6]: 386 nM

B5: ABT2-42 (other)
VL: DIQMTQSPSSLSASVGDRVTITCRASQYIEKWLTWYQQKPGKAPTLLIYRGSLLQSGVPSRFSGSGSGTDFTLTISSLQPEDFATYYCQQTEYWPFTFGQGTKVEIKR
notes: dAb, Vκ, to IL-1β; also called dAb ABT2-42
- MRC5 ND10 [6]: 100 nM
- MRC5 ND50 [6]: 770 nM
- Kd [8]: 54000 nM
- koff [8]: 0.13 s⁻¹
- kon [8]: 2500 M⁻¹ s⁻¹

B6: ABT2-76 (other)
VL: DIQMTQSPSSLSASVGDRVTITCRASQSIDRWLAWYQQKPGKAPKLLIYRGSILQSGVPSRFSGSGSGTDFTLTISSLQPEDFATYYCQQVAFWPPTFGQGTKVEIKR
notes: dAb, Vκ, to IL-1β; also called dAb ABT2-76
- MRC5 ND10 [6]: 50 nM
- MRC5 ND50 [6]: 456 nM
- Kd [9]: 1300 nM
- koff [9]: 0.027 s⁻¹
- kon [9]: 20000 M⁻¹ s⁻¹

B7: ABT2-65 (other)
VH: EVQLLESGGGLVQPGGSLRLSCAASGFTFEDYQMGWVRQAPGKGLEWVSSISAMGNRTYYADSVKGRFTISRDDSKNTLYLQMNSLRAEDTAVYYCAKNLVRTQSKMWMFDYWGQGTLVTVSS
notes: dAb, VH, to IL-1β; also called dAb ABT2-65
- MRC5 ND10 [6]: 100 nM
- MRC5 ND50 [6]: 266 nM
- Kd [10]: 97 nM
- koff [10]: 0.02 s⁻¹
- kon [10]: 250000 M⁻¹ s⁻¹
- MRC5 ND50 [11]: 266 nM

B8: ABT2-108 (other)
VH: EVQLLESGGGLVQPGGSLRLSCAASGFTFAEYTMMWVRQAPGKGLEWVSRIGQDGKNTYYADSVKGRFTISRDNSKNTLYLQMNSLRAEDTAVYYCAKYTGRVGVHHLFDYWGQGTLVTSS
notes: dAb, VH, to IL-1β
- MRC5 ND10 [6]: 150 nM
- MRC5 ND50 [6]: 250 nM
- Kd [12]: 110 nM
- koff [12]: 0.0031 s⁻¹
- kon [12]: 29000 M⁻¹ s⁻¹
